Source: the supplement of paper PMC7877785
± gives the uncertainty stated by the source.

Assay: self-splicing fitness, log relative to wild type (ln ratio); higher = more splicing; Tetrahymena group I intron in knt gene, E. coli kanamycin selection, DiMSum; sequences stand for … in CUCUCU…GGAGGGAAAAGUUAUCAGGCAUGCACCUGGUAGCUAGUCUUUAAACCAAUAGAUUGCAUCGGUUUAAAAGGCAAGACCGUCAAAUUGCGGGAAAGGGGUCAACAGCCGUUCAGUACCAAGUCUCAGGGGAAACUUUGAGAUGGCCUUGCAAAGGGUAUGGUAAUAAGCUGACGGACAUGGUCCUAACCACGCAGCCAAGUCCUAAGUCAACAGAUCUUCUGUUGAUAUGGAUGCAGUUCACAGACUAAAUGUCGGUCGGGGAAGAUGUAUUCUUCUCAUAAGAUAUAGUCGGACCUCUCCUUAAUGGGAGCUAGCGGAUGAAGUGAUGCAACACUGGAGCCGCUGGGAACUAAUUUGUAUGCGAAAGUAUAUUGAUUAGUUUUGGAGUACUCGUGGUCG
How it was run: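 Library with all eight P1ex-region intron nucleotides randomised, intron inside the knt kanamycin-resistance gene on pET-22b(+), in E. coli BL21(DE3). Cells grew overnight at 37°C or 30°C on LB agar with or without 25 μg/mL kanamycin (plus 100 μg/mL carbenicillin, 50 μM IPTG, 0.2% rhamnose), in six replicate transformations. Pooled colonies were amplicon-sequenced on Illumina HiSeq 2500. DiMSum fitness is the error-weighted combination of wild-type-normalised replicate fold changes, kanamycin versus none.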

Row | Sequence | self-splicing fitness (ln) (30 °C) | self-splicing fitness (ln) (37 °C)
1 | ACACAGCAAUAUUACGGGUA | -2.3 ± 0.098 | -1.26 ± 0.074
2 | ACACAGCAAUAUUACGGUAU | -2.59 ± 0.088 | -1.59 ± 0.092
3 | ACACAGCAAUAUUACGGUCU | -0.341 ± 0.05 | 0.298 ± 0.067
4 | ACACAGCAAUAUUACGUAGC | -3.75 ± 0.14 | -2.11 ± 0.12
5 | ACACAGCAAUAUUACGUCCU | -0.17 ± 0.055 | 0.432 ± 0.075
6 | ACACAGCAAUAUUACGUCUA | -1.27 ± 0.072 | -0.282 ± 0.072
7 | ACACAGCAAUAUUACGUGAU | -2.14 ± 0.062 | -1.34 ± 0.086
8 | ACACAGCAAUAUUACGUGGG | -3.5 ± 0.098 | -1.88 ± 0.087
9 | ACACAGCAAUAUUACGUGUA | -3.54 ± 0.11 | -2.06 ± 0.085
10 | ACACAGCAAUAUUACGUGUC | -3.6 ± 0.12 | -3.69 ± 0.2
11 | ACAGAGCAAUAUUACGAAUU | -4.27 ± 0.33 | -1.57 ± 0.2
12 | ACAGAGCAAUAUUACGACAU | -3.246 ± 0.021 | -2.17 ± 0.036
13 | ACAGAGCAAUAUUACGACCA | -0.827 ± 0.21 | 
14 | ACAGAGCAAUAUUACGACGU | -1.31 ± 0.091 | -0.557 ± 0.11
15 | ACAGAGCAAUAUUACGAGAU | -3.23 ± 0.19 | -2.55 ± 0.23
16 | ACAGAGCAAUAUUACGAUCU | -1.68 ± 0.22 | 
17 | ACAGAGCAAUAUUACGCAAA | -2.6 ± 0.34 | -1.42 ± 0.28
18 | ACAGAGCAAUAUUACGCAAG | -3.99 ± 0.39 | -2.33 ± 0.25
19 | ACAGAGCAAUAUUACGCCCU | -3.23 ± 0.23 | -2.02 ± 0.3
20 | ACAGAGCAAUAUUACGCUGU | -3.87 ± 0.42 | -2.69 ± 0.29
21 | ACAGAGCAAUAUUACGGAAG | -3.52 ± 0.22 | -2.12 ± 0.22
22 | ACAGAGCAAUAUUACGGACG | -3.09 ± 0.17 | -0.53 ± 0.33
23 | ACAGAGCAAUAUUACGGAUA | -3.19 ± 0.45 | 
24 | ACAGAGCAAUAUUACGGCCA | -3.47 ± 0.19 | -2.29 ± 0.17
25 | ACAGAGCAAUAUUACGUAAG | -2.36 ± 0.11 | -1.73 ± 0.14
26 | ACAGAGCAAUAUUACGUACU | -2.96 ± 0.27 | -2.14 ± 0.21

Row | Sequence | self-splicing fitness (ln) (30 °C) | self-splicing fitness (ln) (37 °C)
27 | ACAGAGCAAUAUUACGUCUG | -2.35 ± 0.18 | -1.03 ± 0.21
28 | ACAUAGCAAUAUUACGACUC | -0.657 ± 0.086 | -0.29 ± 0.13
29 | ACAUAGCAAUAUUACGAUCA | -1.71 ± 0.087 | -0.779 ± 0.098
30 | ACAUAGCAAUAUUACGAUGU | -3.82 ± 0.16 | -2.19 ± 0.16
31 | ACAUAGCAAUAUUACGCAGA | -2.47 ± 0.14 | -1.74 ± 0.14
32 | ACAUAGCAAUAUUACGCCAA |  | -2.32 ± 0.28
33 | ACAUAGCAAUAUUACGCUCC | -1.62 ± 0.17 | -2.05 ± 0.23
34 | ACAUAGCAAUAUUACGGAAG | -3.57 ± 0.15 | -3.04 ± 0.22
35 | ACAUAGCAAUAUUACGUCCU | -0.372 ± 0.11 | -0.297 ± 0.12
36 | ACAUAGCAAUAUUACGUGAA | -2.13 ± 0.093 | -1.18 ± 0.1
37 | ACAUAGCAAUAUUACGUGGA | -3.3 ± 0.23 | -2.37 ± 0.14
38 | ACAUAGCAAUAUUACGUGUA | -2.68 ± 0.21 | -2.11 ± 0.22
39 | ACAUAGCAAUAUUACGUGUU | -4.04 ± 0.17 | -2.87 ± 0.14
40 | ACCAAGCAAUAUUACGAAGA | -4.11 ± 0.24 | -1.56 ± 0.14
41 | ACCAAGCAAUAUUACGAAGC | -3.94 ± 0.23 | -0.918 ± 0.15
42 | ACCAAGCAAUAUUACGACAG | -1.81 ± 0.078 | -1.82 ± 0.11
43 | ACCAAGCAAUAUUACGACCU | -0.493 ± 0.074 | -0.169 ± 0.087
44 | ACCAAGCAAUAUUACGAGAU | -3.84 ± 0.13 | -2.65 ± 0.16
45 | ACCAAGCAAUAUUACGAGCG | -0.886 ± 0.062 | -1.31 ± 0.081
46 | ACCAAGCAAUAUUACGCCAG | -2.75 ± 0.16 | -1.42 ± 0.18
47 | ACCAAGCAAUAUUACGCUCG | -2.2 ± 0.12 | -1.32 ± 0.13
48 | ACCAAGCAAUAUUACGCUGU | -1.61 ± 0.067 | -0.313 ± 0.074
49 | ACCAAGCAAUAUUACGGAAG | -3.74 ± 0.17 | -3.14 ± 0.19
50 | ACCAAGCAAUAUUACGGAGU | -3.6 ± 0.098 | -2.25 ± 0.12
51 | ACCAAGCAAUAUUACGGCCC | -0.856 ± 0.11 | 0.112 ± 0.16
52 | ACCAAGCAAUAUUACGGCUC | -2.09 ± 0.07 | -0.63 ± 0.084

Row | Sequence | self-splicing fitness (ln) (30 °C) | self-splicing fitness (ln) (37 °C)
53 | ACCAAGCAAUAUUACGGGAC | -4.08 ± 0.14 | -2.05 ± 0.12
54 | ACCAAGCAAUAUUACGUAUG | -3.59 ± 0.13 | -2.53 ± 0.12
55 | ACCAAGCAAUAUUACGUCCC | -2.14 ± 0.12 | -0.924 ± 0.17
56 | ACCAAGCAAUAUUACGUCCG | -1.19 ± 0.072 | -1.19 ± 0.11
57 | ACCAAGCAAUAUUACGUGGC | -3.68 ± 0.18 | -2.94 ± 0.18
58 | ACCAAGCAAUAUUACGUUCC | -3.95 ± 0.16 | -1.37 ± 0.12
59 | ACCAAGCAAUAUUACGUUCG | -1.88 ± 0.07 | -0.644 ± 0.093
60 | ACCAAGCAAUAUUACGUUUC | -4.28 ± 0.17 | -2.55 ± 0.14
61 | ACCCAGCAAUAUUACGAAUU | -1.63 ± 0.075 | -0.951 ± 0.094
62 | ACCCAGCAAUAUUACGACCA | -0.474 ± 0.1 | -0.703 ± 0.14
63 | ACCCAGCAAUAUUACGACUG | -2.87 ± 0.23 | -2.72 ± 0.41
64 | ACCCAGCAAUAUUACGAGAA | -1.61 ± 0.23 | -1.24 ± 0.21
65 | ACCCAGCAAUAUUACGAUCG | -1.92 ± 0.073 | -0.696 ± 0.096
66 | ACCCAGCAAUAUUACGCAGA | -1.02 ± 0.068 | -0.231 ± 0.072
67 | ACCCAGCAAUAUUACGCCAU | -4.24 ± 0.23 | -1.88 ± 0.16
68 | ACCCAGCAAUAUUACGCCUA | -1.15 ± 0.073 | -0.478 ± 0.07
69 | ACCCAGCAAUAUUACGCGAG | -1.63 ± 0.078 | -0.948 ± 0.1
70 | ACCCAGCAAUAUUACGCGGU | -3.41 ± 0.18 | -3.42 ± 0.21
71 | ACCCAGCAAUAUUACGCUCG | -3.65 ± 0.33 | -2.23 ± 0.26
72 | ACCCAGCAAUAUUACGGAAC | -1.91 ± 0.058 | -0.721 ± 0.066
73 | ACCCAGCAAUAUUACGGAGC | -1.06 ± 0.083 | -0.369 ± 0.1
74 | ACCCAGCAAUAUUACGGAGG | -2.1 ± 0.098 | -1.35 ± 0.12
75 | ACCCAGCAAUAUUACGGAGU | -3.7 ± 0.14 | -1.8 ± 0.1
76 | ACCCAGCAAUAUUACGGCCC | -0.0475 ± 0.11 | -0.539 ± 0.15
